Where a chain is given by its changes, count along the chain named.
Tests used:
XtrLin28b ZKD = target: T1, XtrLin28b ZKD (Xenopus tropicalis, UniProt B4F6I0 125-175); experiment: ITC
T1 sequence: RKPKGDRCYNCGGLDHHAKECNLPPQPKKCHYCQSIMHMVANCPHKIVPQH

XtrLin28b CSD [1] = target: T2, XtrLin28b CSD (Xenopus tropicalis, UniProt B4F6I0 27-114); experiment: Trp fluorescence titration
T2 sequence: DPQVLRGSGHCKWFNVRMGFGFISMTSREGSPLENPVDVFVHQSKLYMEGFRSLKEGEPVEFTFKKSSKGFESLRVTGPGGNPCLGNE

XtrLin28b CSD [2] = target: T2, XtrLin28b CSD; experiment: ITC
XtrLin28b CSD F77A = target: T3, XtrLin28b CSD F77A (Xenopus tropicalis, UniProt B4F6I0 27-114, F77A); experiment: ITC
T3 sequence: T2 sequence with F51A

XtrLin28b CSD H68A = target: T4, XtrLin28b CSD H68A (Xenopus tropicalis, UniProt B4F6I0 27-114, H68A); experiment: ITC
T4 sequence: T2 sequence with H42A

XtrLin28b CSD W39A = target: T5, XtrLin28b CSD W39A (Xenopus tropicalis, UniProt B4F6I0 27-114, W39A); experiment: ITC
T5 sequence: T2 sequence with W13A

XtrLin28b CSD F48A = target: T6, XtrLin28b CSD F48A (Xenopus tropicalis, UniProt B4F6I0 27-114, F48A); experiment: ITC
T6 sequence: T2 sequence with F22A

XtrLin28b CSD F66A = target: T7, XtrLin28b CSD F66A (Xenopus tropicalis, UniProt B4F6I0 27-114, F66A); experiment: ITC
T7 sequence: T2 sequence with F40A

XtrLin28b ZKD Y133A = target: T8, XtrLin28b ZKD Y133A (Xenopus tropicalis, UniProt B4F6I0 125-175, Y133A); experiment: ITC
T8 sequence: T1 sequence with Y9A

XtrLin28b ZKD H155A = target: T9, XtrLin28b ZKD H155A (Xenopus tropicalis, UniProt B4F6I0 125-175, H155A); experiment: ITC
T9 sequence: T1 sequence with H31A

B1: rZ3 (ssRNA)
RNA: AAAGAGAA
XtrLin28b ZKD
  Kd: 200 ± 30 nM

B2: dT5 (ssDNA)
DNA: TTTTT
XtrLin28b CSD [1]
  Kd: 680 ± 40 nM

B3: dA2 (ssDNA)
DNA: TATTTTT
XtrLin28b CSD [1]
  Kd: 311 ± 24 nM

B4: rU7 (ssRNA)
RNA: UUUUUUU
XtrLin28b CSD [2]
  Kd: 530 ± 65 nM
XtrLin28b ZKD
  binding result: no binding

B5: dA4 (ssDNA)
DNA: TTTATTT
XtrLin28b CSD [1]
  Kd: 124 ± 12 nM

B6: rA8 (ssRNA)
RNA: AAAAAAAA
XtrLin28b ZKD
  binding result: no binding

B7: dT7 (ssDNA)
DNA: TTTTTTT
XtrLin28b CSD [1]
  Kd: 59 ± 5 nM

B8: rlet-7f5 (ssRNA)
RNA: GUCACACC
XtrLin28b CSD F77A
  Kd: 1180 ± 60 nM
XtrLin28b CSD [2]
  Kd: 18 ± 2 nM
XtrLin28b CSD H68A
  Kd: 540 ± 50 nM
XtrLin28b CSD W39A
  Kd: 1130 ± 110 nM
XtrLin28b CSD F48A
  Kd: 1610 ± 340 nM
XtrLin28b CSD F66A
  Kd: 1440 ± 200 nM

B9: rlet-7f4 (ssRNA)
RNA: GGUCACAC
XtrLin28b CSD [2]
  Kd: 66 ± 9 nM

B10: dC6 (ssDNA)
DNA: TTTTTCT
XtrLin28b CSD [1]
  Kd: 87 ± 14 nM

B11: dG6 (ssDNA)
DNA: TTTTTGT
XtrLin28b CSD [1]
  Kd: 81 ± 10 nM

B12: dC1 (ssDNA)
DNA: CTTTTTT
XtrLin28b CSD [1]
  Kd: 45 ± 4 nM

B13: rlet-7f6 (ssRNA)
RNA: GGUCACACC
XtrLin28b CSD [2]
  Kd: 21 ± 4 nM

B14: dC3 (ssDNA)
DNA: TTCTTTT
XtrLin28b CSD [1]
  Kd: 71 ± 3 nM

B15: dC5 (ssDNA)
DNA: TTTTCTT
XtrLin28b CSD [1]
  Kd: 154 ± 26 nM

B16: rG1 (ssRNA)
RNA: GUUUUUU
XtrLin28b CSD [2]
  Kd: 35 ± 2 nM

B17: rZ4 (ssRNA)
RNA: AAGAAGAA
XtrLin28b ZKD
  Kd: 600 ± 170 nM

B18: dT8 (ssDNA)
DNA: TTTTTTTT
XtrLin28b CSD [1]
  Kd: 32 ± 1 nM

B19: dG2 (ssDNA)
DNA: TGTTTTT
XtrLin28b CSD [1]
  Kd: 39 ± 4 nM

B20: dC2 (ssDNA)
DNA: TCTTTTT
XtrLin28b CSD [1]
  Kd: 137 ± 22 nM

B21: dA1 (ssDNA)
DNA: ATTTTTT
XtrLin28b CSD [1]
  Kd: 84 ± 5 nM

B22: dC4 (ssDNA)
DNA: TTTCTTT
XtrLin28b CSD [1]
  Kd: 73 ± 6 nM

B23: dC7 (ssDNA)
DNA: TTTTTTC
XtrLin28b CSD [1]
  Kd: 59 ± 4 nM

B24: rZ6 (ssRNA)
RNA: AAGGAAAA
XtrLin28b ZKD
  binding result: no binding

B25: dG4 (ssDNA)
DNA: TTTGTTT
XtrLin28b CSD [1]
  Kd: 119 ± 16 nM

B26: rlet-7f (rlet-7f0) (ssRNA)
RNA: GUCACAC
XtrLin28b CSD [2]
  Kd: 46 ± 3 nM

B27: rZ8 (ssRNA)
RNA: AAGGGGAA
XtrLin28b ZKD
  binding result: no binding

B28: rlet-7f3 (ssRNA)
RNA: GACAAAC
XtrLin28b CSD [2]
  Kd: 1360 ± 600 nM

B29: rlet-7f1 (ssRNA)
RNA: GUCAUAC
XtrLin28b CSD [2]
  Kd: 13 ± 2 nM

B30: dG5 (ssDNA)
DNA: TTTTGTT
XtrLin28b CSD [1]
  Kd: 45 ± 4 nM

B31: rGA6 (ssRNA)
RNA: GAAAAAA
XtrLin28b CSD [2]
  binding result: no binding

B32: dA7 (heptaadenosine) (ssDNA)
DNA: AAAAAAA
XtrLin28b CSD [1]
  binding result: no binding

B33: dG7 (position 7) (ssDNA)
DNA: TTTTTTG
XtrLin28b CSD [1]
  Kd: 80 ± 10 nM

B34: dT6 (ssDNA)
DNA: TTTTTT
XtrLin28b CSD [1]
  Kd: 169 ± 30 nM

B35: dG3 (ssDNA)
DNA: TTGTTTT
XtrLin28b CSD [1]
  Kd: 139 ± 8 nM

B36: dA3 (ssDNA)
DNA: TTATTTT
XtrLin28b CSD [1]
  Kd: 137 ± 10 nM

B37: dA5 (ssDNA)
DNA: TTTTATT
XtrLin28b CSD [1]
  Kd: 176 ± 8 nM

B38: dG1 (ssDNA)
DNA: GTTTTTT
XtrLin28b CSD [1]
  Kd: 12 ± 1 nM

B39: rG1b (ssRNA)
RNA: GUCUUUU
XtrLin28b CSD [2]
  Kd: 27 ± 3 nM

B40: dA7 (position 7) (ssDNA)
DNA: TTTTTTA
XtrLin28b CSD [1]
  Kd: 113 ± 15 nM

B41: dA6 (ssDNA)
DNA: TTTTTAT
XtrLin28b CSD [1]
  Kd: 147 ± 15 nM

B42: rZ2 (ssRNA)
RNA: AAGGUGAA
XtrLin28b ZKD
  Kd: 32 ± 2 nM

B43: rlet-7f2 (ssRNA)
RNA: GUCAAAC
XtrLin28b CSD [2]
  Kd: 54 ± 9 nM

B44: dG7 (heptaguanosine) (ssDNA)
DNA: GGGGGGG
XtrLin28b CSD [1]
  binding result: no binding

B45: dT9 (ssDNA)
DNA: TTTTTTTTT
XtrLin28b CSD [1]
  Kd: 44 ± 3 nM

B46: rZ1 (ssRNA)
RNA: AAGGAGAA
XtrLin28b ZKD
  Kd: 45 ± 4 nM
XtrLin28b ZKD Y133A
  Kd: 2200 ± 700 nM
XtrLin28b ZKD H155A
  Kd: 2600 ± 600 nM

B47: rZ7 (ssRNA)
RNA: AAAGAAAA
XtrLin28b ZKD
  Kd: 6800 ± 2100 nM
